In US20220380409A1 (CALIFORNIA INSTITUTE OF TECHNOLOGY, published 2022):
Square brackets hold non-standard residues; d marks the D form. Ends that are not written are not given here. Pra = C#CC[C@H](N)C(=O)O; Az4 = not defined here; PEG = not defined here

T1: LISDAELEAIFD (SEQ ID NO:34)-Az4-PEG-Biotin (Plasmodium falciparum, reading uncertain)
T1 peptide: LISDAELEAIFD-{Az4-PEG-biotin}


Key:
LISDAELEAIFD (SEQ ID …) = target: T1, LISDAELEAIFD (SEQ ID …); experiment: in situ click bead screen of cyclic library C against LISDAELEAIFD-Az4-PEG-Biotin; hits formed a triazole linkage to the epitope peptide
PfLDH protein [1] = target: T2, PfLDH protein (Plasmodium falciparum, UniProt Q27743 2-316); experiment: in situ click bead screen of azide-modified cyclic library C with pfLDH and alkyne-modified hevwh anchor; hit found by triazole formation with the primary ligand
T2 construct: also called Plasmodium falciparum LDH protein

PfLDH protein [2] = target: T2, PfLDH protein; experiment: ELISA titration of PfLDH protein on the ligand (FIG. 11)
GST-PvLDH = target: T3, GST-PvLDH (Plasmodium berghei, UniProt P84793 1-313); experiment: ELISA: 5 uM biotinylated ligand on a streptavidin plate, GST-PvLDH overnight, antiGST-HRP detection (FIG. 10)
T3 construct: Printed as 'whole PvLDH' and 'GST-PvLDH'; also called whole PvLDH protein; not shown: glutathione S-transferase (GST) tag

Row | Binder | binding result (LISDAELEAIFD (SEQ ID …)) | other results
1 | [Pra]KKIHL (triazole (positions not given here); not fully specified (bridges), On-bead library member; variable region only) [KKIHL (SEQ ID NO:6), hit 2 against LDH] | binds | –
2 | YLGHK (triazole (positions not given here); also: Az4 (azide residue) at position 1, ring closed through triazole, places not given here, Secondary ligand; It was found on bead by in situ click with alkyne-modified hevwh in the presence of pfLDH) [YLGHK (SEQ ID NO:14), hit 1 against pan pLDH] | – | binding result (PfLDH protein [1]): binds
3 | HWSAN (staple (positions not given here); also: RCM between olefin-bearing non-natural residues, places not given here, biotinylated, also called RCM cyclic peptide; one of the RCM cyclized peptides) [RCM cyclized version of the HWSAN (SEQ ID NO:11) peptide] | – | EC50 (PfLDH protein [2]): 2.5 nM
4 | [Pra]ILYWK (triazole (positions not given here); not fully specified (bridges), On-bead library member; variable region only) [ILYWK (SEQ ID NO:7), hit 3 against LDH] | binds | –
5 | [Pra]HWSAN (triazole (positions not given here); also: biotinylated in plate assay, construct not described, Variable region only; The exact biotinylated construct used on the streptavidin plate is not described; also called Hit 6) [HWSAN (SEQ ID NO:11) peptide, triazole-cyclized] | binds | binding result (GST-PvLDH): binds
6 | [Pra]RGGIL (triazole (positions not given here); not fully specified (bridges), On-bead library member; variable region only) [RGGIL (SEQ ID NO:5), hit 1 against LDH] | binds | –
7 | [Pra]PLKKG (triazole (positions not given here); not fully specified (bridges), On-bead library member; variable region only) [PLKKG (SEQ ID NO:8), hit 4 against LDH] | binds | –
8 | ELYKY (triazole (positions not given here); also: Az4 (azide residue) at position 1, ring closed through triazole, places not given here, Secondary ligand; It was found on bead by in situ click with alkyne-modified hevwh in the presence of pfLDH) [ELYKY (SEQ ID NO:19), hit 3 against pan pLDH] | – | binding result (PfLDH protein [1]): binds
